Assay results taken from article PMC11482615, “Novel Peptides LFLLP and DFFL from Jack Bean Protein Hydrolysates Suppress the Inflammatory Response in Lipopolysaccharide-Stimulated RAW 264.7 Cells” (Foods, 2024).
Residues, ends and D or L forms follow the SMILES beside them. *: point of attachment. FITC = O=C1OC2(c3ccc(O)cc3Oc3cc(O)ccc32)c2ccc(NC(=S)*)cc21

Test system: RAW 264.7 cells
Assay: Visualization of FITC-conjugated peptides in RAW 264.7 cells (fluorescence microscopy)
Format: cell-based, mouse
Settings: 200 μmol/L FITC-conjugated peptide, 24 h; for incorporation into RAW 264.7 cells (fluorescence signal): intensity of the two peptides roughly comparable; for cellular localization in RAW 264.7 cells: non-colocalization with DAPI
Method: To visualize the cellular localization of peptides, LFLLP and DFFL were conjugated with fluorescein isothiocyanate isomer-I (FITC-I, Dojindo). Briefly, the LFLLP and DFFL were mixed with FITC-I in a carbonate buffer at pH 9.5 for 2 h. To purify the FITC-conjugated peptides, the mixture was applied to a Sep-Pak C18 cartridge. RAW 264.7 cells were seeded in a 6-well plate (0.5 × 10^4 cells/cm^2). After 3 days, the cells were incubated with FITC-conjugated peptides (LFLLP and DFFL, 200 µmol/L) for 24 h. The cells were then washed with cold PBS and fixed with 4% PFA for 10 min. Lastly, the cells were washed three times with PBS and mounted on microscope slides using a mounting fluid containing DAPI, and the fluorescence signals were visualized using a Leica DMI6000 B fluorescence microscope (Leica).

Q: What does the source list for CC(C)C[C@H](NC(=O)[C@H](Cc1ccccc1)NC(=O)[C@H](CC(C)C)NC(=S)Nc1ccc2c(c1)C(=O)OC21c2ccc(O)cc2Oc2cc(O)ccc21)C(=O)N[C@@H](CC(C)C)C(=O)N1CCC[C@H]1C(=O)O [FITC-conjugated LFLLP] ({FITC}-LFLLP-OH)?
A: incorporation into RAW 264.7 cells (fluorescence signal): observed in most cells; cellular localization in RAW 264.7 cells: predominantly localized in the cytosols

Q: How did the “incorporation into RAW 264.7 cells (fluorescence signal)” value turn out when CC(C)C[C@H](NC(=O)[C@H](Cc1ccccc1)NC(=O)[C@H](Cc1ccccc1)NC(=O)[C@H](CC(=O)O)NC(=S)Nc1ccc2c(c1)C(=O)OC21c2ccc(O)cc2Oc2cc(O)ccc21)C(=O)O [FITC-conjugated DFFL] ({FITC}-DFFL-OH) was run?
A: observed in most cells

Q: What about the “cellular localization in RAW 264.7 cells” value of the same molecule?
A: predominantly localized in the cytosols
